Assay results from patent publication US20240400708A1.
Numbering of substitutions follows the chain as printed. In names and notes the source's numbering stands.

B1: feline IgG1a S252H/D312P (antibody, part only; not given: variable domains, not shown: another chain or arm of the molecule; small tags and cut ends)
constant: ASTTAPSVFPLAPSCGTTSGATVALACLVLGYFPEPVTVSWNSGALTSGVHTFPAVLQASGLYSLSSMVTVPSSRWLSDTFTCNVAHPPSNTKVDKTVRKTDHPPGPKPCDCPKCPPPEMLGGPSIFIFPPKPKDTLHISRTPEVTCLVVDLGPDDSDVQITWFVDNTQVYTAKTSPREEQFNSTYRVVSVLPILHQPWLKGKEFKCKVNSKSLPSPIERTISKAKGQPHEPQVYVLPPAQEELSRNKVSVTCLIKSFHPPDIAVEWEITGQPEPENNYRTTPPQLDSDGTYFVYSKLSVDRSHWQRGNTYTCSVSHEALHSHHTQKSLTQSPGK
B2: feline IgG1a S252H/S428M/S434L (antibody, part only; not given: Variable domains, not shown: another chain or arm of the molecule)
constant: B1 constant with P198D, S316M, S322L
B3: feline IgG1a S252H/S428M/D312P (ID No. 221) (antibody, part only; not given: Variable domains, not shown: another chain or arm of the molecule)
constant: B1 constant with S316M
B4: feline IgG1a S252H/S434Y (antibody, part only; not given: Variable domains, not shown: another chain or arm of the molecule)
constant: B1 constant with P198D, S322Y
B5: feline IgG1a S252H/S428M/S434W (antibody, part only; not given: Variable domains, not shown: another chain or arm of the molecule)
constant: B1 constant with P198D, S316M, S322W
B6: feline IgG1a S252H/S434L (antibody, part only; not given: Variable domains, not shown: another chain or arm of the molecule)
constant: B1 constant with P198D, S322L
B7: feline IgG1a D312R (antibody, part only; not given: Variable domains, not shown: another chain or arm of the molecule)
constant: B1 constant with H138S, P198R
B8: feline IgG1a S252H/S434P (antibody, part only; not given: Variable domains, not shown: another chain or arm of the molecule)
constant: B1 constant with P198D, S322P
B9: feline IgG1a S252H/L314K (antibody, part only; not given: Variable domains, not shown: another chain or arm of the molecule; small tags and cut ends)
constant: B1 constant with P198D, L200K
B10: feline IgG1a S252H/S428M/S434Y (antibody, part only; not given: Variable domains, not shown: another chain or arm of the molecule)
constant: B1 constant with P198D, S316M, S322Y
B11: feline IgG1a S252H/S428M/S434P (antibody, part only; not given: Variable domains, not shown: another chain or arm of the molecule)
constant: B1 constant with P198D, S316M, S322P
B12: feline IgG1a D312K (antibody, part only; not given: Variable domains, not shown: another chain or arm of the molecule)
constant: B1 constant with H138S, P198K
B13: feline IgG1a S252H/S428M/S434F (antibody, part only; not given: Variable domains, not shown: another chain or arm of the molecule)
constant: B1 constant with P198D, S316M, S322F
B14: feline IgG1a S252H/S428M (antibody, part only; not given: Variable domains, not shown: another chain or arm of the molecule; small tags and cut ends)
constant: B1 constant with P198D, S316M
B15: feline IgG1a S252H/Q311W (antibody, part only; not given: Variable domains, not shown: another chain or arm of the molecule; small tags and cut ends)
constant: B1 constant with Q197W, P198D
B16: feline IgG1a S252H/S434W (antibody, part only; not given: Variable domains, not shown: another chain or arm of the molecule)
constant: B1 constant with P198D, S322W
B17: feline IgG1a S252H/S428M/Q311W (antibody, part only; not given: Variable domains, not shown: another chain or arm of the molecule)
constant: B1 constant with Q197W, P198D, S316M
B18: feline IgG1a S252H/S434F (antibody, part only; not given: Variable domains, not shown: another chain or arm of the molecule)
constant: B1 constant with P198D, S322F
B19: feline IgG1a S252H/S428M/Q311Y (antibody, part only; not given: Variable domains, not shown: another chain or arm of the molecule)
constant: B1 constant with Q197Y, P198D, S316M
B20: feline IgG1a S252H/Q311Y (antibody, part only; not given: variable domains and light chain, not shown: another chain or arm of the molecule; small tags and cut ends)
constant: B1 constant with Q197Y, P198D

Each binder was assayed against feline FcRn complex (FcRn-α subunit and β-microglobulin), biotin labeled (feline) (assay: SPR, pH 6).
In the case of B1, the Kd is reported as 3.9 nM. For B2, the Kd was 8.59 nM. In the case of B3, the Kd is reported as 8.22 nM. With B4 the Kd was 0.14 nM. Binder B5 has a Kd of 0.135 nM. B6 gave a Kd of 6.08 nM. In the case of B7, the Kd is reported as 6.91 nM. B8 was tested, and the Kd was 9.32 nM. B9 was tested, and the Kd was 6.37 nM. B10 was tested, and the Kd was 0.138 nM. With B11 the Kd was 7.45 nM. B12 was tested, and the Kd was 5.86 nM. B13 was tested, and the Kd was 0.121 nM. B14 gave a Kd of 2.65 nM. With B15 the Kd was 6.04 nM. For B16, the Kd was 0.469 nM. Binder B17 has a Kd of 3.14 nM. Work on B18 yielded a Kd of 0.391 nM. With B19 the Kd was 5.73 nM. B20 gave a Kd of 12.1 nM.

The binders below were run against feline FcRn complex (FcRn-α subunit and β-microglobulin), biotin labeled (feline) (assay: SPR, pH 7.4).
Work on B1 yielded a Kd of 26.7 nM. Binder B2 has a Kd of 3.55 nM. B3 gave a Kd of 330 nM. For B4, the Kd was 12.5 nM. B5 showed a Kd of 20.8 nM. Work on B6 yielded a Kd of 3.79 nM. B7 showed a Kd of 25 nM. With B8 the Kd was 12.8 nM. B9 gave a Kd of 20 nM. B10 showed a Kd of 20.7 nM. In the case of B11, the Kd is reported as 55.6 nM. B12 showed a Kd of 56.1 nM. Work on B13 yielded a Kd of 26.9 nM. Work on B14 yielded a Kd of 101 nM. B15 showed a Kd of 25 nM. Binder B16 has a Kd of 31.1 nM. Work on B17 yielded a Kd of 54.6 nM. B18 gave a Kd of 24.1 nM. For B19, the Kd was 141 nM. B20 gave a Kd of 36.5 nM.
